From patent US20210220450A1, “TREATMENT OF AN IOP CONDITION” (The Research Foundation for The State University of New York, priority 2013, published 2021)

Columns and labels:
[1] = system: MMP-2, MMP-9, MMP-13; assay: MMP expression in PA treated HTM cells (Examples 17, 18); type: cell-based
[2] = system: C57BL/6J mice; assay: Outflow facility in TA and protein treated C57BL/6J mouse eyes (Example 13); type: in vivo; conditions: TA five days before intravitreal protein (2 μl, 5 μg/μl); two days after injection
Procedure: C57BL/6J mice were divided into two groups:
1) Animals receiving bilateral steroid (TA) injection subconjunctivally five days prior to protein injection (FIG. 10b) and 2) Animals not receiving subconjunctival steroids (FIG. 10c).
(§1) 1) Animals that received unilateral intravitreal injection with 2 μl of tPA (5 μg/μl, Actilyse; Boehringer Ingelheim, Ingelheim am Rhein, Germany) while the contralateral eye received 2 μl of BSA (5 μg/μl; Gold Biotechnology, St Louis, Mo., USA), and 2) Animals that received unilateral intravitreal injections with 2 μl of non-enzymatically active tPA (NE-tPA/S478A-tPA) (5 μg/μl; Innovative Research, Novi, Mich., USA) while the contralateral eye received 2 μl of BSA. Animals were euthanized two days after intravitreal injection.
(§2) Outflow facility determination: Mouse eyes were enucleated immediately after euthanasia. Outflow facility was determined using a constant pressure method, as previously described. Pressure was raised in steps of 4 cmH2O, from 8 cmH2O (5.88 mmHg) to 32 cmH2O (23.54 mmHg) by increasing the height of a column of fluid of BSS. […] Flow was constantly measured via a microfluidic flow sensor (0.07-1.5 uL/min, MFS1; Elveflow, Paris, France). […] Any eyes that developed visible leaks during outflow facility determination, or that had pressure-flow correlations with R^2<0.9, were excluded from analysis but were used for RNA quantification.

[3] = system: Mmp-2, Mmp-9, Mmp-13; assay: Mmp expression in TA and protein treated C57BL/6J eyes (Example 13); type: in vivo, mouse; conditions: vs BSA treated controls
[4] = system: PlatKO mice; assay: Outflow facility in protein treated PlatKO mouse eyes (Example 14); type: in vivo; conditions: intravitreal protein
Procedure: (§3) PlatKO and Mmp-9KO mice were also not given steroids prior to protein injections (FIG. 10c). Within each cohort, animals were divided into two groups:
as §1
as §2, with “BSS. Steady state was initially achieved after 10 minutes.” for “BSS.”

[5] = system: Mmp-2, Mmp-9, Mmp-13; assay: Mmp expression in protein treated PlatKO eyes (Example 14); type: in vivo, mouse; conditions: vs BSA treated eyes
Procedure: Tissue collection and confirmation of transgene expression: After outflow facility determination in adenovirus treated mice, mCherry expression in the TM was determined in all AdPLAT and AdPLATNE injected eyes. The eyes were dissected on ice to isolate a rim of tissue containing the TM by removing most of the iris and ciliary body. […] After observation, dissected rims were immediately immersed in RNA stabilizing agent (RNAlater, Invitrogen by ThermoFisher Scientific, Waltham, Mass., USA) and frozen. […]
RNA isolation and quantitative real time PCR: Tissue collected was pooled (four eyes) and homogenized in TRIzol reagent (Life Technologies, Carlsbad, Calif., USA). […] RNA concentration was determined with a Nanodrop ND-1000 Spectrophotometer (ThermoFisher Scientific, Waltham, Mass., USA). cDNA was synthesized by using High-Capacity cDNA Reverse Transcription Kit (Applied Biosystems, Waltham, Mass., USA) according to manufacturer's protocol. Quantitative real-time PCR (qRT-PCR) was performed by using Green-2-Go qPCR Mastermix-ROX (BioBasic, Amherst, N.Y., USA) on a QuantStudio 6 Flex thermal cycler (Applied Biosystems, Carlsbad, Calif., USA).
mRNA expression of sheep PLAT and mouse Mmp-2, Mmp-9, and Mmp-13 in angle ring tissues was determined. […] The relative fold change was calculated by using the ΔΔCt method. […]

[6] = system: Mmp-2, Mmp-9, Mmp-13, Plat; assay: Mmp and Plat expression in protein treated C57BL/6J eyes not exposed to steroids (Example 15); type: in vivo, mouse; conditions: C57BL/6J not exposed to steroids
[7] = system: Mmp-9KO mice; assay: Outflow facility in protein treated Mmp-9KO mouse eyes (Example 16); type: in vivo; conditions: intravitreal protein, p>0.05
Procedure: as §3, §1
as §2, with “BSS. Steady state was initially achieved after 10 minutes.” for “BSS.”

[8] = system: Tg-MYOCY437H mice; assay: Outflow facility in Tg-MYOCY437H mouse eyes (Example 19); type: in vivo
Procedure: To investigate whether corticosteroids affect outflow facility in Tg-MYOCY437H mice, animals received bilateral injections (20 μl) with either triamcinolone acetonide (TA) (40 mg/ml, Kenalog-40; Bristol-Myers Squibb, NY, USA) suspension or phosphate-buffered saline (PBS) (Gibco, ThermoFisher Scientific, Waltham, Mass., USA) subconjunctivally using a 100 μL Hamilton syringe with a 26-gauge needle (Precision Glide, Becton Dickinson & CO, Franklin Lakes, N.J., USA). They were euthanized one week later for outflow facility measurement.
To investigate whether tPA can affect outflow facility in Tg-MYOCY437H mice, and determine whether tPA enzymatic action is necessary for such an effect, intravitreal injections were performed using a 10 μL Hamilton syringe with 36-gauge stainless steel needles (WPI Inc, Sarasota, Fla., USA). […] Animals were sacrificed either two or five days after intravitreal injections for outflow facility measurement. […]
Mouse eyes were enucleated immediately after euthanasia. Outflow facility was determined using a microfluidic flow sensor (0.07-1.5 uL/min, MFS1; Elveflow, Paris, France) and constant pressure method, as previously described (Hu, Barron et al. 2019). […] Any eyes that developed visible leaks or that had pressure-flow correlations with […] were excluded from analysis but were used for RNA quantification.

[9] = system: Mmp-2, Mmp-9, Mmp-13; assay: Mmp expression in Tg-MYOCY437H angle ring tissue (Example 19); type: in vivo, mouse; conditions: 2 days, vs BSA treated eyes
Procedure: Eyes were flash frozen in liquid nitrogen after outflow facility determination and subsequently dissected on ice to obtain the angle ring tissues containing the TM, as previously described (Kumar, Shah et al. 2013). Dissected TM tissues were immersed in RNAlater solution (Invitrogen, Waltham, Mass., USA) and then snap-frozen and stored at −80° C. until RNA extraction. Tissue collected was pooled (four eyes) and homogenized in TRIzol reagent for RNA isolation, per manufacturer's instructions (Life Technologies, Carlsbad, Calif., USA). RNA concentration was determined with a Nanodrop ND-1000 Spectrophotometer (Thermo Scientific, Wilmington, Del., USA). cDNA was synthesized by using High-Capacity cDNA Reverse Transcription Kit (Applied Biosystems, Waltham, Mass., USA) according to manufacturer's protocol. Quantitative real-time PCR (qRT-PCR) was performed by using Green-2-Go qPCR Mastermix-ROX (Bio Basic, Amherst, N.Y., USA) on a QuantStudio 6 Flex thermal cycler (Applied Biosystems, Carlsbad, Calif., USA). mRNA expression of Plat, Plau, Pai-1, Mmp-2, Mmp-9, and Mmp-13 in angle ring tissues was determined. Primers were designed by using Primer-BLAST (https://www.ncbi.nlm.nih.gov/tools/primer-blast/index.cgi?LINK_LOC=BlastHome; in the public domain); primer sequences are listed in Table 2. Primer specificity was confirmed by agarose gel electrophoresis and multiple-sized amplification products were absent on inspection of melting curves. Target mRNA expression values were normalized to the expression levels of Rps11 (ribosomal protein S11). The relative fold change was calculated by using the ΔΔCt method (Hu, Wang et al. 2015). Outliers identified via the Thompson Tau test were removed from analysis.

| Molecule | MMP-9 expression ([1]; added to PA+NE-tPA, vs PA+NE-tPA treated cells) | outflow facility, mean±standard deviation [2] | Mmp-2, Mmp-9 and Mmp-13 expression [3] | increase in outflow facility compared to BSA treated eyes [4] [%] | outflow facility, mean±standard deviation ([4]; no steroid, two days) | Mmp-2 expression [5] | Mmp-9 expression [5] | endogenous Plat expression [6] | gene expression changes in Mmp-2, Mmp-9 and Mmp-13 ([6]; vs BSA) | effect on outflow facility [7] | MMP-2 expression ([1]; PA treated HTM cells, between treatments) | expression (FIG. 17C, MMP-9) ([1]; PA treated HTM cells, vs PA+BSA) | improvement of outflow facility [8] [%] | Mmp-2 expression [9] | Mmp-9 expression [9] | Mmp-13 expression [9] |
| --- | --- | --- | --- | --- | --- | --- | --- | --- | --- | --- | --- | --- | --- | --- | --- | --- |
| RAP: inhibitor of LRP1 (protein, UniProt P30533 35-357, looked up) Alpha-2-macroglobulin …: YSREKNQPKPSPKRESGEEFRMEKLNQLWEKAQRLHLPPVRLAELHADLKIQERDELAWKKLKLDGLDEDGEKEARLIRNLNVILAKYGLDGKKDARQVTSNSLSGTQEDGLDDPRLEKLWHKAKTSGKFSGEELDKLWREFLHHKEKVHEYNVLLETLSRTEEIHENVISPSDLSDIKGSVLHSRHTELKEKLRSINQGLDRLRRVSHQGYSTEAEFEEPRVIDLWDLAQSANLTDKELEAFREELKHFEAKIEKHNHYQKQLEIAHEKLRHAESVGDGERVSRSREKHALLEGRTKELGYTVKKHLQDLSGRISRARHNEL | significantly lower | – | – | – | – | – | – | – | – | – | – | – | – | – | – | – |
| NE-tPA: non-enzymatically active tPA, serine-478 replaced by alanine (Innovative Research) (protein) SYQVICRDEKTQMIYQQHQSWLRPVLRSNRVEYCWCNSGRAQCHSVPVKSCSEPRCFNGGTCQQALYFSDFVCQCPEGFAGKCCEIDTRATCYEDQGISYRGTWSTAESGAECTNWNSSALAQKPYSGRRPDAIRLGLGNHNYCRNPDRDSKPWCYVFKAGKYSSEFCSTPACSEGNSDCYFGNGSAYRGTHSLTESGASCLPWNSMILIGKVYTAQNPSAQALGLGKHNYCRNPDGDAKPWCHVLKNRRLTWEYCDVPSCSTCGLRQYSQPQFRIKGGLFADIASHPWQAAIFAKHRRSPGERFLCGGILISSCWILSAAHCFQERFPPHHLTVILGRTYRVVPGEEEQKFEVEKYIVHKEFDDDTYDNDIALLQLKSDSSRCAQESSVVRTVCLPPADLQLPDWTECELSGYGKHEALSPFYSERLKEAHVRLYPSSRCTAQHLLNRTVTDNMLCAGDTRSGGPQANLHDACQGDSGGPLVCLNDGRMTLVGIISWGLGCGQKDVPGVYTKVTNYLDWIRDNMRP | – | 114±40.3×10^−5 μl/min/mmHg | significant upregulation | 51 | 92±42×10^−5 μl/min/mmHg | not significantly different | significant upregulation | did not cause significant changes | not significantly different | did not increase | not significantly different | significant upregulation | ~37 | no significant difference | significantly higher | significantly higher |
